Reference: US20240090511A1

Target: N. viridula BBMV proteins
Experiment: competition pull-down: biotinylated peptide against ABP5-(AP)5-mCherry on BBMV

competitor peptide concentration at which binding was outcompeted: > 10 µM
Binder: MDWPRRN (biotinylated (position not given)) [biotinylated synthetic peptide (ABP5)]
